The results in this text go back to PMC6220203, “Cellular signaling and gene expression profiles evoked by a bivalent macrocyclic peptide that serves as an artificial MET receptor agonist” (Scientific Reports, 2018).

This assay addresses MET receptor (endogenous, on EHMES-1 cells) (human (endogenous in EHMES-1)) (UniProt P08581).

On to “MET receptor (endogenous, on EHMES-1 cells) (from UniProt P08581 25-1390)”, for which the MET receptor Tyr1234/1235 phosphorylation (cell-based enzyme-linked immunosorbent assay) in EHMES-1 cells against the concentration of aMD5-PEG11; bell-shaped profile was 120 nM.
